# Data published in PMC10469072.
# Target: CD22 (recombinant, histidine-tagged; Thermo Fisher A42609) (human, UniProt P20273 20-687)
# Assay: His-bead pull-down with qRT-PCR
# Chain of CD22 (recombinant, histidine-tagged; Thermo Fisher A42609) (P20273 20-687, one chain of several): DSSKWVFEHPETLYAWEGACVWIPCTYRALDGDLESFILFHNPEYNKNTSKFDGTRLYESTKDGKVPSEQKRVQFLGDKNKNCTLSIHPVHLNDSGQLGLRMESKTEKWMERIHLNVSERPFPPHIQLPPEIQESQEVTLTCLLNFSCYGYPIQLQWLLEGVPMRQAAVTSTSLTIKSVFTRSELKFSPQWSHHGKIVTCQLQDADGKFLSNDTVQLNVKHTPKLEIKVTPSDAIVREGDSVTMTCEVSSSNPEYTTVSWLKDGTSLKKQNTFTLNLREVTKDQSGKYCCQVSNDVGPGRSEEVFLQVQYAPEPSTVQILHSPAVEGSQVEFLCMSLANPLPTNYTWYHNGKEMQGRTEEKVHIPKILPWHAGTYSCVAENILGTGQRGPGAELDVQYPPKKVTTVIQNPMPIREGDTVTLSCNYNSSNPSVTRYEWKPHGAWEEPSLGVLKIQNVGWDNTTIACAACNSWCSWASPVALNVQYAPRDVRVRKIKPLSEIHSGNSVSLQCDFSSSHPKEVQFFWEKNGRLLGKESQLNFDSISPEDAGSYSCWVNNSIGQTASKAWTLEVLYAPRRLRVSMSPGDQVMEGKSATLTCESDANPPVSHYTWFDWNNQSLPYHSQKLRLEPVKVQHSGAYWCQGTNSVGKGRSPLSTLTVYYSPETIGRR
binder,measurement,value
"B-ALL1 (structured_RNA, 2'-fluoro pyrimidines (2'F-C, 2'F-U), unmodified purines) RNA: GGGAGGACGAUGCGGGCCAUUCGUCUUUUCGUCCCCAGACGACUCGCCCGA",binding result,binds
